pKd: −log10 of the molar value.

One experiment addresses Integrin α3β1 (UniProt P26006).
Experiment [1] has as its target integrin alpha3beta1 (Homo sapiens) (UniProt P26006). Conditions: cited from earlier work.

Chain of TIMP-2 (P16035 27-220): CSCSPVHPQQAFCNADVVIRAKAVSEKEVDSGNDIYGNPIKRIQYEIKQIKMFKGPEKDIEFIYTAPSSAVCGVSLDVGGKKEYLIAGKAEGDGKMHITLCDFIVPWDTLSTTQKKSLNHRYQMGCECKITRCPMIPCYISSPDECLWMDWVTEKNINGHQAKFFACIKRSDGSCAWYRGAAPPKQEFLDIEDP
Chain of Integrin α3β1 (P26006 33-1051, chain 1 of 2): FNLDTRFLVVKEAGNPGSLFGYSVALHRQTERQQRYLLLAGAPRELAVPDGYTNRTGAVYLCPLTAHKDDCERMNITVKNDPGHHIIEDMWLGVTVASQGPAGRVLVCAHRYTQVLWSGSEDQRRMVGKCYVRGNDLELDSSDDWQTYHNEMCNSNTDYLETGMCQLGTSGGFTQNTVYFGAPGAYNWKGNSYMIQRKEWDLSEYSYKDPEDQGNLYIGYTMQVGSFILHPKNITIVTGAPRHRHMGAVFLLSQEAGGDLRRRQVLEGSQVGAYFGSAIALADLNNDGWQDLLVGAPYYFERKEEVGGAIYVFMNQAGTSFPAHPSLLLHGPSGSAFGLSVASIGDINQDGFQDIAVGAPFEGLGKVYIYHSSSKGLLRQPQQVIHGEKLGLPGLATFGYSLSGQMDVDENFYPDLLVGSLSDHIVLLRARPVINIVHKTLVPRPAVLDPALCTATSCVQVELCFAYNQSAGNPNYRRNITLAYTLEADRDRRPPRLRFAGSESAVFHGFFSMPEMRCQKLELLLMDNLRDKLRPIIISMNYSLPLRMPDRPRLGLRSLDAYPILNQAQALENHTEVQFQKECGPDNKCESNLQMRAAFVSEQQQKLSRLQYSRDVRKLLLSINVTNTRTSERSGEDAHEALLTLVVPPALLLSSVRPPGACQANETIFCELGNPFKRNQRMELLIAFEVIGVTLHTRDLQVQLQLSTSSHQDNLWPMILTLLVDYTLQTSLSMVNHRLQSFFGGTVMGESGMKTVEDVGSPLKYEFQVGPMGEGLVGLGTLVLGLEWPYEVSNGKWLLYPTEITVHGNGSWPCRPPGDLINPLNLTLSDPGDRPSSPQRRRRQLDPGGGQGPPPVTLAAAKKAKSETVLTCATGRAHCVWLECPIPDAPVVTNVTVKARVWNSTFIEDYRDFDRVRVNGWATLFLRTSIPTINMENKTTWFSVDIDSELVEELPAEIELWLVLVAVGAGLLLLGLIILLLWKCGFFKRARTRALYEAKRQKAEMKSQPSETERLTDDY
Chain of Integrin α3β1 (P05556 21-728, chain 2 of 2, further chain): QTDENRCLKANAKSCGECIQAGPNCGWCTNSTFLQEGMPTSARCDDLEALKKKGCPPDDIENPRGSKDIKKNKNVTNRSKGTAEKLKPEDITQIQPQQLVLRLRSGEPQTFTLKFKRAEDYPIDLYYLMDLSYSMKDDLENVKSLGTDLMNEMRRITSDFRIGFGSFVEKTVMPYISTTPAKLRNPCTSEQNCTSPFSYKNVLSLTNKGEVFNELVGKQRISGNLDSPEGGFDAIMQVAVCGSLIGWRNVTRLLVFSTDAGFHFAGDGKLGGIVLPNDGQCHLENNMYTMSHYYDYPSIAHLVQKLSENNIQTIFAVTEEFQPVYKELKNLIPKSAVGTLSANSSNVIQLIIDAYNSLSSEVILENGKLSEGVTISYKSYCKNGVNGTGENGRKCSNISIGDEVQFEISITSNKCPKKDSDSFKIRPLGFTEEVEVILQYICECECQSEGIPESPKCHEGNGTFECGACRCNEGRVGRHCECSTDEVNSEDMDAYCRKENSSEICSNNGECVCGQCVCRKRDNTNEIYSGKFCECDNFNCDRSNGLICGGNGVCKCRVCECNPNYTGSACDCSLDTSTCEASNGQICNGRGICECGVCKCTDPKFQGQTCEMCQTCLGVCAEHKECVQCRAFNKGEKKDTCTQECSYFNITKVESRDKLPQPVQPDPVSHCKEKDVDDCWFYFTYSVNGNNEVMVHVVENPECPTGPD
Chain of integrin alpha3beta1 (Homo sapiens) (P26006 33-991, chain 1 of 2): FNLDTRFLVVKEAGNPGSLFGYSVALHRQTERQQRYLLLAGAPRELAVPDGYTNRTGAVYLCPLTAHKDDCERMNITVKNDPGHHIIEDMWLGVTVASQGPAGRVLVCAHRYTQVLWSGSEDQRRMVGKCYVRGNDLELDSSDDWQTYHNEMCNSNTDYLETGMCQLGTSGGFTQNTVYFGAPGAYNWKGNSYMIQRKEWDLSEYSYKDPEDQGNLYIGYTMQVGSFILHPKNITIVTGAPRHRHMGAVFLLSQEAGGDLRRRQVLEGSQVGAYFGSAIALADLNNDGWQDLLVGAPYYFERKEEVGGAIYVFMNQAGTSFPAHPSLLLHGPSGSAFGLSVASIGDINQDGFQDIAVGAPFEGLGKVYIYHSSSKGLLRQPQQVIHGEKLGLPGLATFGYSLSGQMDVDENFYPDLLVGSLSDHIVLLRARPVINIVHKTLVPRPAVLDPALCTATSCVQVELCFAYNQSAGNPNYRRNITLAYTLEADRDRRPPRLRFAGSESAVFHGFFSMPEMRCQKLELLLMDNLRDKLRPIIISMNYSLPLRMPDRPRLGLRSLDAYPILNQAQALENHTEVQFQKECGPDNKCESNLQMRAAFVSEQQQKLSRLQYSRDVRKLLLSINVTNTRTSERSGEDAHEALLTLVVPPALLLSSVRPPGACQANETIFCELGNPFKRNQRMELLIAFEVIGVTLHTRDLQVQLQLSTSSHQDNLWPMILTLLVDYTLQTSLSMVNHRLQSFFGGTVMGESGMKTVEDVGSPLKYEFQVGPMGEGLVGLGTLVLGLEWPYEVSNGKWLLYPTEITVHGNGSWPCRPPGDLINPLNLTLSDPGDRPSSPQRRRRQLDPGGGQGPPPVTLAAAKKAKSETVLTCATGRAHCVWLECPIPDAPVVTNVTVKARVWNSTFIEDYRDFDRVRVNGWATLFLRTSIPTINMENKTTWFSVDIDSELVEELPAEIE
Chain of integrin alpha3beta1 (Homo sapiens) (P05556 21-728, chain 2 of 2, further chain): as the sequence (P05556 21-728, chain 2 of 2, further chain) above

In the case of “Ala+TIMP-2 (from UniProt P16035 27-220) (natural protein)”, the inhibition of VEGF-A-stimulated (10 ng/mL) growth of hMVECs, 100 nM protein with Integrin α3β1 is 75%.

In general, pKd refers to the Kd on a negative log10 scale, so that one unit is a factor of ten. In the case of TIMP-2 (from UniProt P16035), the pKd in experiment [1] is 9.05.

The record behind these values is PMC3177407.
